Among the data in article PMC11027413 are percent of RBM22 linked with RNAPII values, retold here.

This test addresses RNA polymerase II (RNAPII) (human (endogenous in HepG2)) (UniProt P24928). Nature of the test: co-sedimentation; HepG2 cell lysate on a 10-40% glycerol gradient in NP-40 lysis buffer (50 mM HEPES pH 7.5, 100 mM NaCl), 50,000 rpm for 11 h at 4°C; fractions detected by Western blotting. On the technique in general: Immunoblotting shows a protein as a band on a membrane.

In turn, “RBM22 (endogenous) (from UniProt Q9NW64 1-420) (natural protein)” came in with a percent of RBM22 linked with RNAPII of 40%.
